Article PMC11928764
Like-named read-outs stand apart in the source and are kept apart here.

Assays:
[1] = target: eSALO-WT (SALO, salivary anticomplement from Lutzomyia longipalpis, expressed by HEK293(T) cells) (Lutzomyia longipalpis) (UniProt Q5WPZ4); experiment: SPR; biotinylated eSALO-WT captured on streptavidin (97 RU); single-cycle kinetics, C1r proenzyme 25-400 nM, zC1r-12SP 6.25-100 nM; 25 °C, HBS-T; two-state kinetic model, apparent KD
[2] = target: eSALO-E58A (Lutzomyia longipalpis); experiment: SPR; biotinylated eSALO-WT or mutants captured on streptavidin (50-73 RU); single-cycle kinetics, C1r proenzyme 25-400 nM, zC1r-12SP 6.25-100 nM; 25 °C, HBS-T; two-state binding model, apparent KD; mean ± SD of three injections
[3] = target: eSALO-WT (SALO, salivary anticomplement from Lutzomyia longipalpis, expressed by HEK293(T) cells) (Lutzomyia longipalpis) (UniProt Q5WPZ4); experiment: as above
[4] = target: eSALO-Y51F (Lutzomyia longipalpis); experiment: as above
[5] = target: eSALO-WT (SALO, salivary anticomplement from Lutzomyia longipalpis, expressed by HEK293(T) cells) (Lutzomyia longipalpis) (UniProt Q5WPZ4); experiment: SPR; eSALO-WT amine-coupled to a CMD200M chip (720 RU); analytes injected as two-fold series (15.6-1000 nM; 1.56-100 nM for C1 and C1r proenzyme); 25 °C, HBS-T (20 mM Hepes pH 7.4, 140 mM NaCl, 0.005% Tween-20); 1:1 model, apparent KD
[6] = target: T1, C1r proenzyme (zymogen of complement protease C1r) (human)
T1 sequence (P00736 18-705, looked up): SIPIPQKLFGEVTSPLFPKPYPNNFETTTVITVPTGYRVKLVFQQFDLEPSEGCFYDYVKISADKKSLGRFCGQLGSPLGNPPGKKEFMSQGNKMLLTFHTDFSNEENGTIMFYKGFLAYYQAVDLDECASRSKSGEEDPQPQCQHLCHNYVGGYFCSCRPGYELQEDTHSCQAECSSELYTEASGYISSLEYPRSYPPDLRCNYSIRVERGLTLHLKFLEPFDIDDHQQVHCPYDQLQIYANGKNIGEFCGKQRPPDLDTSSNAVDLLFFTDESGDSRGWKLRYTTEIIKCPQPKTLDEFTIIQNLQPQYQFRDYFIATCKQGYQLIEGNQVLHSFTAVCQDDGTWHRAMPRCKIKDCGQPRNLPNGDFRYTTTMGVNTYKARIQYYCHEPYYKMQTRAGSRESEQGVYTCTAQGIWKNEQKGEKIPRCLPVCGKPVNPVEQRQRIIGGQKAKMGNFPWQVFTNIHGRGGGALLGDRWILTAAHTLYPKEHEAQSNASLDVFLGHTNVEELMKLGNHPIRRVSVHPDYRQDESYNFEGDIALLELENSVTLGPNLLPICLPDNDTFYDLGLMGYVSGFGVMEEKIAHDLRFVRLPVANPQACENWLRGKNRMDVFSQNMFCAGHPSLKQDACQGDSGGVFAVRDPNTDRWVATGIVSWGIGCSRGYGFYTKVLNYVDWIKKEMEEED

[7] = target: T1, C1r proenzyme (zymogen of complement protease C1r) (human); remark: listed apart in the source

“C1r proenzyme (zymogen of complement protease C1r)” was tested, and the Kd [1] was 11.1 nM, the Ka-1 (two-state model, first step, association) [2] was 50000 M⁻¹ s⁻¹ and the Ka-2 (two-state model, second step, forward) [2] was 0.0023 s⁻¹. It also gave a Kd [2] of 10.3 nM, a Kd-1 (two-state model, first step, dissociation) [2] of 0.0027 s⁻¹ and a Kd-2 (two-state model, second step, reverse) [2] of 0.00037 s⁻¹. It also gave a Ka-1 (two-state model, first step, association) [3] of 30000 M⁻¹ s⁻¹, a Ka-2 (two-state model, second step, forward) [3] of 0.003 s⁻¹ and a Kd [3] of 5.6 nM. For the same molecule, the Kd-1 (two-state model, first step, dissociation) [3] was 0.0022 s⁻¹, the Kd-2 (two-state model, second step, reverse) [3] was 0.00027 s⁻¹ and the Ka-1 (two-state model, first step, association) [4] was 370000 M⁻¹ s⁻¹. The Ka-2 (two-state model, second step, forward) [4] was 0.0008 s⁻¹, the Kd [4] was 41.9 nM and the Kd-1 (two-state model, first step, dissociation) [4] was 0.0183 s⁻¹. For the same molecule, the Kd-2 (two-state model, second step, reverse) [4] was 0.00069 s⁻¹ and the Kd [5] was 8.5 nM.

With “Native C1 complex (first component of complement) (from UniProt P02745 23-245; P02746 28-253; P02747 29-245)” the Kd [5] was 0.8 nM.

In the case of eSALO-E58A (natural protein), the IC50 of inhibition of classical-pathway hemolysis (antibody-sensitized sheep erythrocytes, 0.5% NHS) [6] is reported as 1200 nM.

Work on eSALO-Y51F (natural protein) yielded an IC50 of inhibition of classical-pathway hemolysis (antibody-sensitized sheep erythrocytes, 0.5% NHS) [6] of 14500 nM.

For “zC1r-12SP (fragment of human C1r with its two CCP repeats and serine protease domain, S654A, zymogen-like) (domain or fragment)”, the Kd [1] was 0.7 nM, the Ka-1 (two-state model, first step, association) [2] was 260000 M⁻¹ s⁻¹ and the Ka-2 (two-state model, second step, forward) [2] was 0.0018 s⁻¹. It also gave a Kd [2] of 2.5 nM, a Kd-1 (two-state model, first step, dissociation) [2] of 0.0034 s⁻¹ and a Kd-2 (two-state model, second step, reverse) [2] of 0.00041 s⁻¹. The Ka-1 (two-state model, first step, association) [3] was 370000 M⁻¹ s⁻¹, the Ka-2 (two-state model, second step, forward) [3] was 0.0024 s⁻¹ and the Kd [3] was 1.1 nM. It also gave a Kd-1 (two-state model, first step, dissociation) [3] of 0.0038 s⁻¹, a Kd-2 (two-state model, second step, reverse) [3] of 0.00028 s⁻¹ and a Ka-1 (two-state model, first step, association) [4] of 280000 M⁻¹ s⁻¹. It also gave a Ka-2 (two-state model, second step, forward) [4] of 0.0017 s⁻¹, a Kd [4] of 9 nM and a Kd-1 (two-state model, first step, dissociation) [4] of 0.008 s⁻¹. The Kd-2 (two-state model, second step, reverse) [4] was 0.00077 s⁻¹.

B1: eSALO-WT (SALO, salivary anticomplement from Lutzomyia longipalpis, expressed by HEK293(T) cells) (natural protein)
chain: SEDCENIFHDNAYLLKLDCEAGRVDPVEYDDISDEEIYEITVDVGVSSEDQEKVAKIIRECIAQVSTQDCTKFSEIYDCYMKKKICNYYPENM
modifications: sulfotyrosine at Y51 (X51; extent of sulfation not known); biotin (NHS-PEG4-biotin) where surface-captured in SPR
B1 was tested, and the IC50 of inhibition of classical-pathway hemolysis (antibody-sensitized sheep erythrocytes, 0.5% NHS) [6] was 84.9 nM.

B2: rSALO-WT (SALO expressed in Escherichia coli and refolded) (natural protein)
chain: SEDCENIFHDNAYLLKLDCEAGRVDPVEYDDISDEEIYEITVDVGVSSEDQEKVAKIIRECIAQVSTQDCTKFSEIYDCYMKKKICNYYPENM
Work on B2 yielded an IC50 of inhibition of classical-pathway hemolysis (antibody-sensitized sheep erythrocytes, 0.5% NHS) [7] of 16000 nM.
